This note sets out measurements from patent US20090130692A1.

In the test the target is bovine pancreatic trypsin (bovine) (UniProt P00760). As to the kind of experiment: inhibition of bovine trypsin, substrate Boc-Leu-Gly-Arg-pNA, tight-binding fit (Morrison); apparent Ki (Kiapp).
bovine pancreatic trypsin (bovine), sequence (P00760 24-246): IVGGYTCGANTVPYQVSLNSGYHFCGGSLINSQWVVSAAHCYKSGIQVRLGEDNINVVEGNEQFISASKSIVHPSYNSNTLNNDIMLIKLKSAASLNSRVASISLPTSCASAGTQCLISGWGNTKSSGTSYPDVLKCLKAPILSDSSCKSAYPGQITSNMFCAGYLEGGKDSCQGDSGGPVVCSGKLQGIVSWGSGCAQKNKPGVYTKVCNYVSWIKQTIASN

With “barnase′-EETI-II fusion protein (from UniProt P00648 48-157)”, the Ki worked out at 9 nM.
On to “barnase′-McoEeTI fusion protein (from UniProt P00648 48-157)”, for which the Ki was 71 nM.
